# Changes are numbered by the printed parent chain.
# B1: mgp130_VHH40 (VHH)
# VHH: QVQLQESGGGLVQPGGSLRLSCAASGFTFSNYAMSWVRQAPGKGVEWVSAINSGGSVFYADSVKGRFTISRDNAKNTLYLQLSSLKTEDTAMYYCAKHVTGDYDPSLRYGYNVWSQGTQVTVSS
# notes: As periplasmic extract of the phage clone; also called anti-mouse gp130 VHH; not shown: HA/His tag of the pMECS phagemid
# B2: mgp130_VHH38 (VHH)
# VHH: QVQLQESGGGSVQAGGFLRLSCAFSGYTGCMGWFRQGPGQEREGVASINDGGSLTYADSVKGRFTISKDNAKKTLDLQMNTLKPEDTAMYYCAASLSYCLNPTLRVDGYNYWGQGTQVTVSS
# notes: as for B1
# B3: mgp130_VHH30 (VHH)
# VHH: QVQLQESGGGLVQPGGSLRLSCAASGFTFSSYAMSWVRQAPGKGLEWVSAINSGGGSTYYADSVKGRFTISRDNAKNTLYLQLNSLKTEDTAMYYCAKHVTGDYDPSLRYEYNYWSQGTQVTVSS
# notes: as for B1
# B4: mgp130_VHH42 (VHH)
# VHH: B3 VHH with E111G, Y114V
# notes: as for B1
# B5: mgp130_VHH43 (VHH)
# VHH: B3 VHH with S53L, G56D, S57T, A61T, N113G
# notes: as for B1
# B6: mgp130_VHH29 (VHH)
# VHH: B3 VHH with G56A, Y95C, Y114C, S116G, Q117P
# notes: as for B1
# B7: mgp130_VHH20 (VHH)
# VHH: B3 VHH with M34V, A50T, A97T, Y114V
# notes: as for B1
# B8: mgp130_VHH35 (VHH)
# VHH: B3 VHH with V100I, S116G
# notes: as for B1
# B9: mgp130_VHH46 (VHH)
# VHH: B3 VHH with Y95C, V100I, Y114C, S116G
# notes: as for B1
# B10: mgp130_VHH11 (VHH)
# VHH: B3 VHH with S30R, S31N, A97T
# notes: as for B1
# B11: mgp130_VHH10 (VHH)
# VHH: B3 VHH with A23T, S30R, S31N, Q82R, N84H
# notes: as for B1
# B12: mgp130_VHH34 (VHH)
# VHH: B3 VHH with S30R, G66A, S116G
# notes: as for B1
# B13: mgp130_VHH17 (VHH)
# VHH: B3 VHH with S30R, S31N, N113A
# notes: as for B1
# B14: mgp130_VHH16 (VHH)
# VHH: B3 VHH with S30R, S31N, L83M, T88P
# notes: as for B1
# B15: mgp130_VHH4 (VHH)
# VHH: B3 VHH with G56A, S57G, A61T, Y110H, E111G, Y114V
# notes: as for B1
# B16: mgp130_VHH18 (VHH)
# VHH: B3 VHH with L11S, P14A, G66A, E111D, S116G
# notes: as for B1
# B17: mgp130_VHH33 (VHH)
# VHH: B3 VHH with L79M, T101A, Y112W, N113H, Y114V, S116G
# notes: as for B1
# B18: mgp130_VHH12 (VHH)
# VHH: B3 VHH with Y95C, E111G, Y114C, S116G, Q117P
# notes: as for B1
# B19: mgp130_VHH7 (VHH)
# VHH: B3 VHH with G16E, G56A, S57G, A61T, E111G, Y114V
# notes: as for B1
# B20: mgp130_VHH28 (VHH)
# VHH: B3 VHH with N77S, A97T
# notes: as for B1
# B21: mgp130_VHH1 (VHH)
# VHH: QVQLQESGGGSVQAGGSLRLSCVISGFTYRQTFMGWFRQVLGKEREGVAAISTGGGSTVYADSVKGRFTISQDSSKNTVYLEMNGLKLEDTGMYYCAASTVITSVSINRGLYQYWGQGTQVTVSS
# notes: as for B1
# B22: mgp130_VHH9 (VHH)
# VHH: B21 VHH with V23G, Q31P, T58S, I70V
# notes: as for B1
# B23: mgp130_VHH24 (VHH)
# VHH: B21 VHH with Q31P, S52T, V59L, S99T, G110N
# notes: as for B1
# B24: mgp130_VHH21 (VHH)
# VHH: B21 VHH with L20V, V23Q, L41P, V105P, G110N
# notes: as for B1
# B25: mgp130_VHH31 (VHH)
# VHH: B21 VHH with L41V, N77D, V105E, G110N
# notes: as for B1
# B26: mgp130_VHH41 (VHH)
# VHH: B21 VHH with V23G, Q31P, N77D, V105E, G110N
# notes: as for B1
# B27: mgp130_VHH19 (VHH)
# VHH: B21 VHH with V23G, Q31P, T58S, I70V, G110A
# notes: as for B1
# B28: mgp130_VHH8 (VHH)
# VHH: B21 VHH with Q31P, S52T, S99T, G110N
# notes: as for B1
# B29: mgp130_VHH27 (VHH)
# VHH: B21 VHH with L20V, L41P
# notes: as for B1
# B30: mgp130_VHH45 (VHH)
# VHH: B21 VHH with L20V, L41P, V59I, D62N
# notes: as for B1
# B31: mgp130_VHH37 (VHH)
# VHH: B21 VHH with S11P, L41P, V105E
# notes: as for B1
# B32: mgp130_VHH47 (VHH)
# VHH: B21 VHH with R30K, L41P, S57N, S106T, I107V
# notes: as for B1
# B33: mgp130_VHH39 (VHH)
# VHH: B21 VHH with F27L, R30K, L41P, S74N, G110Y, Y114W
# notes: as for B1
# B34: mgp130_VHH26 (VHH)
# VHH: B21 VHH with T28V, R30K, L41P
# notes: as for B1
# B35: mgp130_VHH36 (VHH)
# VHH: B21 VHH with L41V, T58M, N77D, V105E, G110N
# notes: as for B1
# B36: mgp130_VHH14 (VHH)
# VHH: B21 VHH with R30K, L41P
# notes: as for B1
# B37: mgp130_VHH49 (VHH)
# VHH: B21 VHH with R30K, L41P, D73E, S106T
# notes: as for B1
# B38: mgp130_VHH2 (VHH)
# VHH: B21 VHH with V23A, L41V, N77D, V105E, G110N
# notes: as for B1
# B39: mgp130_VHH25 (VHH)
# VHH: B21 VHH with R30K, L41P, S106T
# notes: as for B1
# B40: mgp130_VHH5 (VHH)
# VHH: B21 VHH with L41V, V59I, N77D, V105E, G110N
# notes: as for B1
# B41: mgp130_VHH15 (VHH)
# VHH: B21 VHH with L41V, N77D, V105E, N108Y, G110N
# notes: as for B1
# B42: mgp130_VHH32 (VHH)
# VHH: B21 VHH with L20V, I24V, L41P, G110N
# notes: as for B1
# B43: mgp130_VHH22 (VHH)
# VHH: QVQLQESGGGLVQPGGSLRLSCAVSGFTFSNYAMKWVRQAPGKGLEWVSSISGGGGATYYADSVKGRFTISRDNTKNTLYLQMNSLKTEDTAVYYCAAQNLDYRGQGTQVTVSS
# notes: as for B1
# B44: mgp130_VHH48 (VHH)
# VHH: B43 VHH with G10A, V24A, N31Y, K76N, N77D
# notes: as for B1
# B45: mgp130_VHH23 (VHH)
# VHH: QVQLQESGGGLVQPGGSLRLSCTASGFTFNSAHMKWERQPPGKGLEWVSFITPGGASTGYADSVKGRFTISRDNAKNTLYLQMNNLKTEDTAVYYCATGGLRGQGTQVTVSS
# notes: as for B1
# B46: mgp130_VHH44 (VHH)
# VHH: B45 VHH with M34L, P53N, N74D
# notes: as for B1
# B47: mgp130_VHH3 (VHH)
# VHH: QVQLQESGGGLVQPGGSLRLSCAASGFTLSTYWIYWVRQAPGKGPEWVSTVSRSGGTTYYADSVNGRFTISRDNAKNTVYLQMNNLKPEDAAVYYCLASVSNLGWPPVRAPSPTGQGTQVTVSS
# notes: as for B1
# Molecular target: T1, mgp130 ECD antigen (mouse, UniProt Q00560 23-617)
# T1 construct: Antigen of biopanning and PE-ELISA; The immunogen was an ECD-human IgG1 hinge-Fc fusion; also called ECD of mouse gp130; ngp130 ECD antigen (so in the source)
# T1 sequence: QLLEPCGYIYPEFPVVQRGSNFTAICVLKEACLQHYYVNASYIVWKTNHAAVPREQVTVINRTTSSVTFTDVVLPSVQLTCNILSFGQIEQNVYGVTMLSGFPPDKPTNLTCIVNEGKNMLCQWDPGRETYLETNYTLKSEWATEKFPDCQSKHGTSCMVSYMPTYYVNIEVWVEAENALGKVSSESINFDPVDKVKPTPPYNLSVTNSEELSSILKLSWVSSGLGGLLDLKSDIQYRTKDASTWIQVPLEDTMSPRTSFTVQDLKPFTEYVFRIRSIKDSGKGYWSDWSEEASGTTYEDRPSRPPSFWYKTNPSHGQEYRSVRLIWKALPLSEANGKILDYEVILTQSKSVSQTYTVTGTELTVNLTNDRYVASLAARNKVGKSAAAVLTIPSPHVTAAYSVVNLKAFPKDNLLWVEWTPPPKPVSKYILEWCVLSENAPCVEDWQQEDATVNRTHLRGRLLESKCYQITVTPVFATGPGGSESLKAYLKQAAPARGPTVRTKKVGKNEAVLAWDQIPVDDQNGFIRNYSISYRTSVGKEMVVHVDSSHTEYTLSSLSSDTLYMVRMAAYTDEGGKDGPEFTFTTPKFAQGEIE
# Test: periplasmic extract ELISA (PE-ELISA) of phage clones
row,Binder,binding result
1,B1,binds
2,B2,binds
3,B3,binds
4,B4,binds
5,B5,binds
6,B6,binds
7,B7,binds
8,B8,binds
9,B9,binds
10,B10,binds
11,B11,binds
12,B12,binds
13,B13,binds
14,B14,binds
15,B15,binds
16,B16,binds
17,B17,binds
18,B18,binds
19,B19,binds
20,B20,binds
21,B21,binds
22,B22,binds
23,B23,binds
24,B24,binds

row,Binder,binding result
1,B25,binds
2,B26,binds
3,B27,binds
4,B28,binds
5,B29,binds
6,B30,binds
7,B31,binds
8,B32,binds
9,B33,binds
10,B34,binds
11,B35,binds
12,B36,binds
13,B37,binds
14,B38,binds
15,B39,binds
16,B40,binds
17,B41,binds
18,B42,binds
19,B43,binds
20,B44,binds
21,B45,binds
22,B46,binds
23,B47,binds

# From patent publication US20260176365A1 (SYNTHEKINE, published 2026)
